Key:
[1] = target: T1, EN2 (Engrailed-2), recombinant (human, UniProt P19622 1-333); test: plate fluorescence binding (EN2 immobilized); signal saturates at 250 nM EN2; 20 mM Tris-HCl, 50 mM NaCl, 5 mM KCl, 5 mM MgCl2, pH 8.0, room temperature, 1 h; conditions: protein: recombinant; tags: N-terminal His (pET28a); label: 5'-FAM; hairpin
T1 sequence: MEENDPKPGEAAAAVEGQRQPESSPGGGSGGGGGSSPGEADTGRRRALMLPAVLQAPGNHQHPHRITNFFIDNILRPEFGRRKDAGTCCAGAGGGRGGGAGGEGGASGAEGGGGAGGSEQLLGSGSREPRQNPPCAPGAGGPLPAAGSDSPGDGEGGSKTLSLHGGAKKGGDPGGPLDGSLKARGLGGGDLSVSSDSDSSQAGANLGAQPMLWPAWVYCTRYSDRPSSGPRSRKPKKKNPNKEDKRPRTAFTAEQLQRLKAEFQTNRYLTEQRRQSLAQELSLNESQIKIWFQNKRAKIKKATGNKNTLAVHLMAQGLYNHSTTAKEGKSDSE

[2] = target: T1, EN2 (Engrailed-2), recombinant; test: magnetic-bead fluorescence assay (His-EN2 on NTA beads); 5 mM Mg2+; 20 mM Tris-HCl, 50 mM NaCl, 5 mM KCl, 5 mM MgCl2, pH 8.0, room temperature, 1 h; conditions: protein: recombinant; tags: N-terminal His (pET28a); label: 5'-FAM

Row | Binder | binding result [1] | Kd [2]
1 | CGCATAATTACCTCCAGAAGGAGAGGTAATTATGCG (structured_DNA) [EN2 motif hairpin DNA] | binds | –
2 | AGCGGATCCGAGGTGAGGAGCGCCGGTGAGACTCCTTCATTCTATCTGCT (structured_DNA) [EBA (trimmed H90)] | – | 8.26 nM

Reference: PMC9263169, “Aptamer-antibody hybrid ELONA that uses hybridization chain reaction to detect a urinary biomarker EN2 for bladder and prostate cancer”
